Assay results reported in US20190322750A1 (Y BIOLOGICS, published 2019).
Residue numbers refer to the chain shown, from its start. Blank lines part the entries; values can stand above or below the binder they belong to.

Assays:
[1] = biological target: T1, PD-L1 on CHO cell line highly expressing PD-L1 (PD-1/PD-L1 blockade bioassay kit, promega J1250) (UniProt Q9NZQ7 19-290, limits assumed); experiment: cell-based or functional assay
[2] = biological target: T1, PD-L1 on CHO cell line highly …; experiment: cell-based or functional assay; remark: listed apart in the source
[3] = biological target: T2, human PD-L1 over-expressed on HEK293E cells (human, UniProt Q9NZQ7 19-290); experiment: flow cytometry on HEK293E/PD-L1 cells, FITC anti-human IgG, serial dilutions; fit table
T2 construct: whole, on cells; also called human PD-L1 (NM_014143.2)
T2 sequence (Q9NZQ7 19-290): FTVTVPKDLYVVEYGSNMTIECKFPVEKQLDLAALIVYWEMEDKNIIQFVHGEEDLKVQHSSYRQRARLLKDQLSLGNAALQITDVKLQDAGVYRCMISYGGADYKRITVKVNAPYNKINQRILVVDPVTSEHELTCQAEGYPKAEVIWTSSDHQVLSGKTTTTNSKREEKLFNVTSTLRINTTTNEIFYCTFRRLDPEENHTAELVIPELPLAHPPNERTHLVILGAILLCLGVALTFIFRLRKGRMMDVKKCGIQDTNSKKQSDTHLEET
Protocol: 0.5 to 1×10⁶ cells per sample were prepared from the transformation cell pools highly expressing human PD-L1, and antibodies were serially diluted at a constant dilution rate and reacted with the prepared cells at 4° C. for 20 minutes. Then, the cells were washed three times with PBS (#LB001-02, Welgene) containing 2% fetal bovine serum and reacted at 4° C. for 20 minutes with an anti-human IgG antibody (#FI-3000, Vectorlabs) conjugated with a FITC (fluorescein isothiocyanate) fluorescent substance. Then, the cells were subjected to the same washing process as above and then suspended in 0.5 ml of PBS containing 2% FBS (#26140-079, Thermo Fisher) with an FACSCanto II flow cytometer (BD Biosciences, USA) as a flow cytometer (Table 11).

PD-L1-hFc = biological target: T3, PD-L1-hFc (human, UniProt Q9NZQ7 19-238); experiment: kinetics on PD-L1-hFc (legend paragraph 40; text names ProteOn XPR36, the sheet's sensorgrams have a nm axis)
T3 construct: extracellular domain; Made in HEK-293F cells, protein A purified; also called PD-L1 antigen; PD-L1 protein
T3 sequence (Q9NZQ7 other isoform, or with tags, fused parts or gaps limits assumed): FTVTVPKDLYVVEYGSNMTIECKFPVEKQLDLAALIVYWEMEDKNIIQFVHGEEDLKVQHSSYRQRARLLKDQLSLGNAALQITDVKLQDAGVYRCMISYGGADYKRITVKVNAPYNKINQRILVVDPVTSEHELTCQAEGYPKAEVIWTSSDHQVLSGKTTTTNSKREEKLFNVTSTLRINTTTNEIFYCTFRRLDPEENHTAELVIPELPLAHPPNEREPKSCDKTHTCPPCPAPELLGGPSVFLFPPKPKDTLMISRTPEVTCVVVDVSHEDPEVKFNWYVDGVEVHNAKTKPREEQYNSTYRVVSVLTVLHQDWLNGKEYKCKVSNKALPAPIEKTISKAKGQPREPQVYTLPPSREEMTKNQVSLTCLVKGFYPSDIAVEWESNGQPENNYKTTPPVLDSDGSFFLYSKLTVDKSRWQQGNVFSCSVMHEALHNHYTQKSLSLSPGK

T1 sequence (Q9NZQ7 19-290 limits assumed): as the sequence (Q9NZQ7 19-290) above

Average *EC50 [nM], PD-1/PD-L1 blockade bioassay [1]: 0.48 nM
B1: PDL1-16E12 (LS/4A6) (antibody, V domains shown)
VH: QMQLVQSGAEVKKPGSSVKVSCKASGGTFSSYAISWVRQAPGQGLEWMGRIIPILGIANYAQKFQGRVTITADKSTSTAYMELSSLRSEDTAVYYCAKPRDGYNLVAFDIWGQGTMVTVSS
VL: QLVLTQPTSVSGAPGQRVIISCTGSSSNIGAGYDVHWYQQLPGTAPKLLIYGNTNRPSGVPDRFSGSKSGTAASLAITGLQAEDEADYYCQSFDRSRSGSNVFGTGTKVTVL

Average *EC50 [nM], PD-1/PD-L1 blockade bioassay [1]: 0.49 nM
B2: PDL1-16E12 (LS/4E12) (antibody, V domains shown)
VH: B1 VH
VL: QLVLTQPPSVSAAPGQKVTFSCTGSSSNIGAGYDVHWYQHLPGAAPRLLIYANTNRPLGVPDRFSGSKSGTSASLAITGLQAEDEADYYCQSYDNRLSGSLFGGGTKLTVL

Average *EC50 [nM], PD-1/PD-L1 blockade bioassay [1]: 0.63 nM
B3: PDL1-16E12 (LS/4B11) (antibody, V domains shown)
VH: B1 VH
VL: QLVLTQPPSVSGAPGQRVTISCTGTNSNIGAGHDVQWYQQIPGTAPKLLIYGNNNRPSGVPDRFSGSKSGTLASLAITGLQSEDEADYYCHSYDGSLSEGVFGTGTKVTVL

Average *EC50 [nM], PD-1/PD-L1 blockade bioassay [1]: 188 nM
B4: PDL1-16E12 (LS/4B8) (antibody, V domains shown)
VH: B1 VH
VL: QLVLTQPPSVSGAPGQSVTISCTGSNSDIGAGHDVHWYQQLPGAAPKLLIHGDRDRPSGVPDRFSGSKSGTSASLAITGLQPEDEADYYCQSYNNSLRGSVFGTGTKVTVL

Average *EC50 [nM], PD-1/PD-L1 blockade bioassay [1]: 0.33 nM
EC50 (first run) [2]: 0.43 nM
EC50 (second run) [2]: 0.26 nM
Bmax [3]: 4020
Kd [3]: 1.93 nM
Kd (PD-L1-hFc): < 0.001 nM
koff (PD-L1-hFc): < 1e-07 s⁻¹
kon (PD-L1-hFc): 226000 M⁻¹ s⁻¹
B5: PDL1-16E12 (LS/4H5) (antibody, V domains shown)
VH: B1 VH
VL: QLVLTQPPSVSGAPGQRVTISCTGSSSNIGAGYDVHWYQQLPGTAPKLLIYGNSNRPSGVPDRFSGSKSGTSASLAITGLQAEDEADYYCQSYDSSLSGGVFGGGTKLTVL
notes: also called PD-L1-16E12-4H5

Average *EC50 [nM], PD-1/PD-L1 blockade bioassay [1]: 0.45 nM
B6: PDL1-16E12 (LS/4A10) (antibody, V domains shown)
VH: B1 VH
VL: QLVLTQPPSVSGAPGQRVTISCTGSNSNIGAGYDVHWYQQLPGTAPKLLIHGNNIRPSGVPDRFSGSRSGTSASLAITGLQADDEANYFCQSYDNSLRGSVFGTGTKVTVL

Average *EC50 [nM], PD-1/PD-L1 blockade bioassay [1]: 0.39 nM
EC50 (first run) [2]: 0.4 nM
EC50 (second run) [2]: 0.4 nM
Bmax [3]: 4400
Kd [3]: 2.42 nM
Kd (PD-L1-hFc): 0.0158 nM
koff (PD-L1-hFc): 2.62e-06 s⁻¹
kon (PD-L1-hFc): 166000 M⁻¹ s⁻¹
B7: PDL1-16E12 (LS/4C9) (antibody, V domains shown)
VH: B1 VH
VL: QLVLTQPPSVSGAPGQRVTISCTGGSSNIGAGYDVHWYQQLPGTAPKLLLFGNTNRPSGVPGRFSGSKSGSSASLAITGLQSDDEADYYCQSYDSSLGGSVIGTGTKVTVL
notes: also called PD-L1-16E12-4C9

Average *EC50 [nM], PD-1/PD-L1 blockade bioassay [1]: 1.02 nM
B8: PDL1-16E12 (LS/4H11) (antibody, V domains shown)
VH: B1 VH
VL: QLVLTQPPSVSGAPGQRVTISCTGSSSNVGAGYDVHWYQQLPGTAPKLLIYGNNNRPSGVPARFSGSKSGTSASLAITGLQAEDEADYYCQSYDSRLGVVFGGGTKLTVL

Average *EC50 [nM], PD-1/PD-L1 blockade bioassay [1]: 0.57 nM
B9: PDL1-16E12 (LS/4D4) (antibody, V domains shown)
VH: B1 VH
VL: B5 VL with P8S, I29L, G32P, G66V, G99S, G100S

Average *EC50 [nM], PD-1/PD-L1 blockade bioassay [1]: 1.68 nM
B10: PDL1-16E12 (LS/4F11) (antibody, V domains shown)
VH: B1 VH
VL: B5 VL with L2F, Y33S, S54N, S98N, G100V

Average *EC50 [nM], PD-1/PD-L1 blockade bioassay [1]: 0.36 nM
EC50 (first run) [2]: 0.43 nM
EC50 (second run) [2]: 0.31 nM
Bmax [3]: 3990
Kd [3]: 1.98 nM
Kd (PD-L1-hFc): < 0.001 nM
koff (PD-L1-hFc): < 1e-07 s⁻¹
kon (PD-L1-hFc): 240000 M⁻¹ s⁻¹
B11: PDL1-16E12 (LS/4H8) (antibody, V domains shown)
VH: B1 VH
VL: B1 VL with T8S, I19T, T54S, A72S, F93Y, R95S, R97L, N101G
notes: also called PD-L1-16E12-4H8

Average *EC50 [nM], PD-1/PD-L1 blockade bioassay [1]: 0.51 nM
B12: PDL1-16E12 (LS/4H6) (antibody, V domains shown)
VH: B1 VH
VL: QLVLTQPPSVSAAPGQTVTISCTGSSSNIGAGYDVHWYQQFPGTAPKLLIYGNNNRPSGVPDRFSGSKSGTSASLAITGLQTDDEADYFCQSYDSSLRVSSVFGTGTKVTVL

Average *EC50 [nM], PD-1/PD-L1 blockade bioassay [1]: 0.63 nM
B13: PDL1-16E12 (LS/4H9) (antibody, V domains shown)
VH: B1 VH
VL: QFVLTQPPSVSGAPGQRVTISCTGSRSNFGAGHDVHWYQQLPGTAPKLLIYGNNNRPSGVPDRFSGSKSGTSASLAIAGLQSDDEADYYCQSYDSSLSGSVFGTGTKVTVL

Average *EC50 [nM], PD-1/PD-L1 blockade bioassay [1]: 0.47 nM
B14: PDL1-16E12 (LS/4G1) (antibody, V domains shown)
VH: B1 VH
VL: B7 VL with G98S, I102F

Average *EC50 [nM], PD-1/PD-L1 blockade bioassay [1]: 0.37 nM
EC50 (first run) [2]: 0.38 nM
EC50 (second run) [2]: 0.4 nM
Bmax [3]: 4260
Kd [3]: 3.92 nM
Kd (PD-L1-hFc): 0.0396 nM
kon (PD-L1-hFc): 161000 M⁻¹ s⁻¹
B15: PDL1-16E12 (LS/4A7) (antibody, V domains shown)
VH: B1 VH
VL: QLVLTQPPSVSGAPGQRVTISCTGSSSNIGAGYDVHWYQSLPGTVPKLLISGNSNRPPGVPDRFSGSKSGTSASLAITSLQSEDEADYYCHSYDGSLSEGVFGTGTKVTVL
notes: also called PD-L1-16E12-4A7

Average *EC50 [nM], PD-1/PD-L1 blockade bioassay [1]: 0.34 nM
EC50 (first run) [2]: 0.37 nM
EC50 (second run) [2]: 0.36 nM
Bmax [3]: 4230
Kd [3]: 2.57 nM
Kd (PD-L1-hFc): 0.0798 nM
koff (PD-L1-hFc): 1.28e-05 s⁻¹
kon (PD-L1-hFc): 160000 M⁻¹ s⁻¹
B16: PDL1-16E12 (LS/4A11) (antibody, V domains shown)
VH: B1 VH
VL: B5 VL with T19I, L41V, S54N, N55H, A86T, S95N, S96R, G100S, V101L
notes: also called PD-L1-16E12-4A11

Average *EC50 [nM], PD-1/PD-L1 blockade bioassay [1]: 0.46 nM
B17: PDL1-16E12 (LS/4B12) (antibody, V domains shown)
VH: B1 VH
VL: QLVLTQPPSVSGAPGQRVTISCTGSSSNIGAGYDVHWYQQLPGTAPKLIIYGDTKRASGVPDRFSGSKSGTSASLAITGLQAEDGADYYCQSYDNSLSAHAVFGTGTKVTVL

Average *EC50 [nM], PD-1/PD-L1 blockade bioassay [1]: 0.83 nM
B18: PDL1-16E12 (LS/4A8) (antibody, V domains shown)
VH: B1 VH
VL: B8 VL with V29I, Q40H, L41R, T44K, K47Q, N53D, V60I, A62D, A82P, Y93F

Average *EC50 [nM], PD-1/PD-L1 blockade bioassay [1]: 0.45 nM
B19: PDL1-16E12 (LS/4E5) (antibody, V domains shown)
VH: B1 VH
VL: B8 VL with R17G, S25D, V29I, L41F, G52E, N54S, A62D, V99A
